Assay [1] addresses T1, human CB1 expressing TRex-CHO cells (Homo sapiens, UniProt P21554).
T1 construct: pcDNA4/TO native full length human CB1 receptor construct was transfected into tetracycline inducible system Trex-CHO and Trex-293 cells; expressed in transfected cells
Format: cell-based.

Assay [2] has as its target T2, CB1 TRex-CHO cells (Homo sapiens, UniProt P21554).
T2 construct: pcDNA4/TO native full length human CB1 receptor construct was transfected into tetracycline inducible system Trex-CHO and Trex-293 cells; expressed in transfected cells
Format: cell-based. As to conditions: antibody 300 nM, 1 hour.

Assay [3] has as its system Trex-CHO CB1 receptor cells, WIN55,212 induced ERK phosphorylation. As to the kind of experiment: ERK activation assay (western blot). The conditions noted are these: IgG 300 nM, WIN55,212 100 nM. For orientation: A western blot detects proteins with antibodies after separation by electrophoresis.
Assay [4] relates to TRex CHO parental cells. As to the kind of experiment: Flow cytometry (FACS) binding, parental cells. As to conditions: in words. A general note: A flow cytometer gives signals particle by particle.
For assay [5], the target named is human CB2 (Homo sapiens, UniProt P34972). The experiment in a line: Flow cytometry (FACS) selectivity, human CB2 cells. The conditions noted are these: in words.
human CB2, sequence (P34972 whole entry): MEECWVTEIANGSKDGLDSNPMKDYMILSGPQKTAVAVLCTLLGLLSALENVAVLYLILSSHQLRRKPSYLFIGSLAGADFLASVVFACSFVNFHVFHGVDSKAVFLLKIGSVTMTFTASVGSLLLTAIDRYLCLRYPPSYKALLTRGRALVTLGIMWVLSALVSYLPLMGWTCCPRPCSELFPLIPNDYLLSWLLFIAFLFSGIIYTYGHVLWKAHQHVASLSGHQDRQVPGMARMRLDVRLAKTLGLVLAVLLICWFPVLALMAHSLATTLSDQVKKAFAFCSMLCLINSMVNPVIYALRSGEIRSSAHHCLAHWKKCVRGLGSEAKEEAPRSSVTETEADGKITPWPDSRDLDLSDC
Assay [6] has as its target Mouse CB1 (Mus musculus, UniProt P47746). The experiment in a line: Flow cytometry (FACS) cross-reactivity, mouse CB1 cells. As to conditions: in words.

T2 sequence (P21554 whole entry): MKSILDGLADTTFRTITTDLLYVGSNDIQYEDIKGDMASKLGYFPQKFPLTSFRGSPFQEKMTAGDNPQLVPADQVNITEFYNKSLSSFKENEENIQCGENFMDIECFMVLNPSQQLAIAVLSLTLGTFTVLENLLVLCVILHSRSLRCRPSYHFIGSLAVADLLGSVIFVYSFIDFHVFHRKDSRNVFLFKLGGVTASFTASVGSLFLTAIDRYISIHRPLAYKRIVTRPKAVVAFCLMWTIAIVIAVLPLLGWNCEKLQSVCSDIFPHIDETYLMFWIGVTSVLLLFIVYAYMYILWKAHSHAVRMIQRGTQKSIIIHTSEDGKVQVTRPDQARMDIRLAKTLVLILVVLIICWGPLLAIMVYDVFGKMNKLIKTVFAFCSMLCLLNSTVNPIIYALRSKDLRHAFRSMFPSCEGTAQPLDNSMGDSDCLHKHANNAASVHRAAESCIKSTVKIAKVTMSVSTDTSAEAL
T1 sequence (P21554 whole entry): as above
Mouse CB1, sequence (P47746 whole entry): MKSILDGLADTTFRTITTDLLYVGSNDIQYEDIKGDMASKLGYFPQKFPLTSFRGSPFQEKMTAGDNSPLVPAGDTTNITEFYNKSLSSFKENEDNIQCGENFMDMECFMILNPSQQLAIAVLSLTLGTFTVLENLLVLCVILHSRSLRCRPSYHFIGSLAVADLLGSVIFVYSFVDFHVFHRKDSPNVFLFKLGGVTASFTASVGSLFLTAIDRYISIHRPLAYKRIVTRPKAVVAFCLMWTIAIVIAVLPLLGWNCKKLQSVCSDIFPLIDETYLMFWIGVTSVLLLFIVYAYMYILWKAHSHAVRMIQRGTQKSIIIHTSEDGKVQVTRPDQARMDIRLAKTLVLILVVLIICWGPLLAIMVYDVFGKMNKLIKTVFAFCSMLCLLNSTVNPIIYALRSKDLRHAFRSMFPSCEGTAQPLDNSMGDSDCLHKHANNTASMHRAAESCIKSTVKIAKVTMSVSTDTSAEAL

Regarding `Cc1c(C(=O)NN2CCS(=O)(=O)CC2)nn(-c2ccc(Cl)cc2Cl)c1-c1ccc(C#CCCC#N)cc1` [AM6545, reference compound], in assay [1] (1.5 μM or 5 μM forskolin stimulated TRex-CHO CB1 cells, no exogenous agonist), the “effect on cAMP levels” value is reported as “did not affect cAMP levels”.

B1: PA2LR3-P3F8: CB1 antibody (antibody, V domains shown)
VH: EVQLQQSGAELVRPGSSVKISCKASGYAFSNYWMNWVKQRPGQGLEWIGQIYPGDGDTNYNGNFKGKATLTADKSSSTAYMQLSSLTSEDSAVYFCARSHGNYFPYWGQGTLVTVSA
VL: DIVLTQSPAIMSASLGERVTMTCTASSSVSSSYLHWYQQKPGSSPKLWIYSTSNLASGVPARFSGSGSGTSYSLTISSMEAEDAATYYCQQWSSYPLTFGAGTKLELK
modifications: PA2LR3-P3F8 Heavy Chain Variable Region; PA2LR3-P3F8 Light Chain Variable Region
notes: CB1 antibody
Consider B1, for which, in assay [2], the “induction of CB1 receptor internalization by the substance alone” value (“induction” for short) is recorded as “do not induce”.

B2: PA2LR3-P4B5: CB1 antibody; HC variable SEQ ID NO: 26, LC variable SEQ ID NO: 30 (antibody, V domains shown)
VH: EVQLQQSGAELVRPGSSVKISCKASGYAFSYYWMNWVKQRPGQGLEWIGQIYPGDGDTNYSGRFKGKATLTADKSSSTAYIQLSSLTSEDSAVYFCARSHGNYFPYWGQGTLVTVSA
VL: DIVLNQSPAIMSASLGERVTMTCTASSSVSSSYLHWYQQKPGSSPKLWIYSTSNLASGVPARFSGSGSGTSYSLTISSMEAEDAATYYCHQYHRSPLTFGAGTKLEIK
modifications: PA2LR3- P4B5 Heavy chain variable region; PA2LR3- P4B5 Light chain variable region
As to B2, the “induction” value in assay [2] is recorded as “do not induce”.

B3: PA2LR3-P6G7: HC variable SEQ ID NO: 58, LC variable SEQ ID NO: 62; potential agonist IgG (antibody, V domains shown)
VH: EVQLQQSGAELVRPGSSVKISCKASGFAFSNYWMNWVKQRPGQGLEWIGQIYPGDGDTNFNGKFKGRAILTADISSNTAYMQLSSLTSEDSAVYFCARSHGNYFPYWGQGTLVTVSA
VL: DIVLTQSPAIMSASLGERVTMTCTASSSVSSSYLHWYQQKPGSSPKLWIYSTSNLASGVPARFSGSGSGTSYSLTISSMEAEDAATYYCHQHHRSPPTFGAGTKLELK
modifications: PA2LR3-P6G7 Heavy chain variable region; PA2LR3-P6G7 Light chain variable region
B3: the “induction” value in assay [2] is on record as “do not induce”.

B4: PA2LR3-P4B1: HC variable SEQ ID NO: 42, LC variable SEQ ID NO: 46; potential agonist IgG (antibody, V domains shown)
VH: EVQLQQSGAELVRPGSSVKISCKASGFAFSNYWMNWVKQRPGQGLEWIGQIYPGDGDTNFNGKFKGRAILTADISSNTAYMQLSSLTSEDSAVYFCARSHGNYFPYWGQGTLVTVSA
VL: QIVLTQSPAIMSASLGERVTMTCTASSSVSSSYLHWYQQKPGSSPKLWIYSTSNLASGVPARFSGSGSGTSYSLTISSMEAEDAATYYCHQYHRSPLTFGAGTKLELK
modifications: PA2LR3-P4B1 Heavy chain variable region; PA2LR3-P4B1 Light chain variable region
Turning to B4, the “induction” value in assay [2] was “do not induce”.

B5: PA2LR3-P5E7: CB1 antibody (antibody, V domains shown)
VH: EVQLQQSGAELVRPGSSVKISCKASGYAFSNYWMNWVKQRPGQGLEWIGQIYPGDGDTNFNGKFKGRAILTADISSNTAYMQLSSLTSEDSAVYFCARSHGNYFPYWGQGTLVTVSA
VL: DIVLTQSPTTMAASPGEKITITCSASSSISSNYLHWYQQKPGFSPKLLIYRTSTLASGVPARFSGSGSGTSYSLTISSMEAEDAATYYCHQYHRSPHTFGSGTKLEIK
modifications: PA2LR3-P5E7 Heavy Chain Variable region; PA2LR3-P5E7 Light Chain Variable region
notes: CB1 antibody
Take B5: in assay [2], the “induction” value is recorded as “do not induce”.

B6: 36E12B6C2: hybridoma-derived anti-CB1 antibody; HC variable SEQ ID NO: 18, LC variable SEQ ID NO: 22 (antibody, listed as Mus sp., V domains shown)
VH: QVQLQQSGAELVRPGSSVKISCKASGYEFSYYWMNWVKQRPGQGLQWIGQIYPGDGDTNYNGKFKGKATLTADKSSSTAYMHLTSLTSEDSAVYFCARSGGNPFAFWGQGTLVTVSA
VL: DIQMTQTSSSLSASLGDRVTFSCRASQDISNYLNWYQQKPDGTVKLLIYYTSRLHSGVTSRFRGSGSGTDYSLTISNLEQEDVATYFCQQGHTLPWSFGGGTKLEIK
With B6, the “mechanism (inverse agonist or neutral antagonist)” value in assay [1] (5 μM forskolin, no agonist (Example 11)) is listed as “inverse agonists”. Moreover, the “blocking of WIN55,212 induced ERK phosphorylation” value in assay [3] was “blocked”. For the same molecule, the “binding to parental TRex CHO” value in assay [4] is listed as “not parental TRex CHO”. The “cross-activity / selectivity human CB2” value in assay [5] is “do not have cross-activity”. In addition, the “cross-activity / cross-reactivity Mouse CB1” value in assay [6] was “do not have cross-activity”.

B7: PA2LR3-P4C6: CB1 receptor binding IgG clone (antibody, V domains shown)
VH: EVQLQQSGAELVRPGSSVKISCKASGYAFSYYWMNWVKQRPGQGLEWIGQIYPGDGDTNYNGKFKGKATLTADKSSSTAYMQLSSLTSEDSAVYFCARSHGNYFPYWGQGTLVTVSA
VL: DIVITQSPAIVSASLGERVTMTCTASSSVSSSYLHWYQQKPGSSPKLWIYSTSNLASGVPARFSGSGSGTSYSLTISSMEAEDAATYYCQQWSSYPLTFGAGTKLEIK
modifications: PA2LR3-P4C6 Heavy Chain Variable region; PA2LR3-P4C6 Light Chain Variable region
For the molecule B7, in assay [2], the “induction” value is recorded as “do not induce”.

B8: PA2LR3-P3A8: CB1 antibody (antibody, V domains shown)
VH: EVQLQQSGAELVRPGSSVKISCKASGYAFSYYWMNWVKQRPGQGLEWIGQIYPGDGDTNYNGKVKGKATLTADKSSSTAYMQLSSLTSEDSAVYFCARSHGNYFAYWGQGTLVTVSA
VL: DIVMTQSPAIMSASLGERVTMTCTASSSVSSSYLHWYQQKPGSSPKLWIYSTSNLASGVPARFSGSGSGTSYSLTISSMEAEDAATYYCQQWSSNPLTFGAGTKLELK
modifications: PA2LR3-P3A8 Heavy Chain Variable Region; PA2LR3-P3A8 Light Chain Variable Region
notes: CB1 antibody
For the molecule B8, the “induction” value in assay [2] is “do not induce”.

B9: PA2LR3-P4G10: CB1 receptor binding IgG clone (antibody, V domains shown)
VH: EVQLQQFGAELVRPGSSVKISCKASGYAFSYYWMNWVKQRPGQGLEWIGQIYPGDGDTNYNGKFKGKATLTADKSSSTAYMQLSSLTSEDSAVYFCARSHGNYFAYWGQGTLVTVSA
VL: DIVLTQSPAIMSASLGERVTMTCTASSSVSSSYLHWYQQKPGSSPKLWIYSTSNLASGVPARFSGSGSGTSYSLTISSMEAEDAATYYCQQWSSNPLTFGAGTKLELK
modifications: PA2LR3-P4G10 Heavy Chain Variable region; PA2LR3-P4G10 Light Chain Variable region
Regarding B9, the “induction” value in assay [2] is listed as “do not induce”.

B10: PA2LR3-P6B12: HC variable SEQ ID NO: 50, LC variable SEQ ID NO: 54; potential allosteric modulator (antibody, V domains shown)
VH: EVQLQQSGAELVRPGSSVKISCKASGYAFSYYWMNWVKQRPGQGLEWIGQIYPGDGDTNYNGKFKGKATLTADKSSSTAYMQLSSLTSEDSAVYFCARSHGNYFAYWGQGTLVTVSA
VL: QIVLTQSPAIMSASLGERVTMTCTASSSVSSSYLHWYQQKPGSSPKLWIYSTSNLASGVPARFSGSGSGTSYSLTISSMEAEDAATYYCHQYHRSPLAFGAGTKLELK
modifications: PA2LR3-P6B12 Heavy chain variable region; PA2LR3-P6B12 Light chain variable region
As to B10, the “induction” value in assay [2] is on record as “do not induce”.
